# Laboratory results: the supplement of paper PMC9170038
# System: K4 kissing-loop RNA reporter;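 also: bound reporter read as fluorescence of individual clusters on recovered sequencing chips by microscopy, with normalized cluster intensities fitted with a binding model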
# Experiment: apparent KD of K4 kissing-loop reporter; higher = weaker reporter binding
# Details: Eterna round: R107; input ligand: FMN 200 uM
# Experimental: (§1)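 RNA-MaP round R107: designed RNA switches with theophylline, tryptophan, arginine or FMN aptamers are transcribed on-chip within common flanks. They are titrated with a labelled K4 kissing-loop RNA reporter in RNA-MaP buffer (100 mM Tris pH 7.5, 80 mM KCl, 4 mM MgCl2), without ligand or with the indicated ligand. Median apparent KD per design.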
row,Sequence,apparent KD of K4 kissing-loop reporter [nM]
1,CGUACAUCUUUUCGCGGAGUGAUGUUCUCGCGAGGACCGGUACGGCCGCCACUCGAAUUGUUAUCUGGCGAAAAUUGUCUAUAAA [theeternabot_exclusion_KL_Trp_A_33],393
2,AUCGAGCCCAUCGGUGAGUCAUUAGUUGAUACCAGAGCUAUUGGCCUCCCUUGGCAGCAAGUAAACCUGUUUAGUGAUGUUAAAC [theeternabot_exclusion_KL_Theo_A_15],178

# Same assay, conditions: Eterna round: R107; input ligand: arginine 13.2 mM
row,Sequence,apparent KD of K4 kissing-loop reporter [nM]
1,CGUACAUCUUUUCGCGGAGUGAUGUUCUCGCGAGGACCGGUACGGCCGCCACUCGAAUUGUUAUCUGGCGAAAAUUGUCUAUAAA [theeternabot_exclusion_KL_Trp_A_33],273
2,AUCGAGCCCAUCGGUGAGUCAUUAGUUGAUACCAGAGCUAUUGGCCUCCCUUGGCAGCAAGUAAACCUGUUUAGUGAUGUUAAAC [theeternabot_exclusion_KL_Theo_A_15],150

# Same assay, conditions: Eterna round: R107; input ligand: none
row,Sequence,apparent KD of K4 kissing-loop reporter [nM]
1,CGUACAUCUUUUCGCGGAGUGAUGUUCUCGCGAGGACCGGUACGGCCGCCACUCGAAUUGUUAUCUGGCGAAAAUUGUCUAUAAA [theeternabot_exclusion_KL_Trp_A_33],352
2,AUCGAGCCCAUCGGUGAGUCAUUAGUUGAUACCAGAGCUAUUGGCCUCCCUUGGCAGCAAGUAAACCUGUUUAGUGAUGUUAAAC [theeternabot_exclusion_KL_Theo_A_15],168

# Same assay, conditions: Eterna round: R107; input ligand: theophylline 20 uM
row,Sequence,apparent KD of K4 kissing-loop reporter [nM]
1,CGUACAUCUUUUCGCGGAGUGAUGUUCUCGCGAGGACCGGUACGGCCGCCACUCGAAUUGUUAUCUGGCGAAAAUUGUCUAUAAA [theeternabot_exclusion_KL_Trp_A_33],318
2,AUCGAGCCCAUCGGUGAGUCAUUAGUUGAUACCAGAGCUAUUGGCCUCCCUUGGCAGCAAGUAAACCUGUUUAGUGAUGUUAAAC [theeternabot_exclusion_KL_Theo_A_15],162

# Same assay, conditions: Eterna round: R107; input ligand: tryptophan 2.4 mM
row,Sequence,apparent KD of K4 kissing-loop reporter [nM]
1,CGUACAUCUUUUCGCGGAGUGAUGUUCUCGCGAGGACCGGUACGGCCGCCACUCGAAUUGUUAUCUGGCGAAAAUUGUCUAUAAA [theeternabot_exclusion_KL_Trp_A_33],410
2,AUCGAGCCCAUCGGUGAGUCAUUAGUUGAUACCAGAGCUAUUGGCCUCCCUUGGCAGCAAGUAAACCUGUUUAGUGAUGUUAAAC [theeternabot_exclusion_KL_Theo_A_15],157

# System: MS2 coat protein
# Experiment: apparent KD of MS2 coat protein; higher = weaker reporter binding
# Details: Eterna round: R107; input ligand: arginine 13.2 mM
# Experimental: as §1, with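 “SNAP-549-labelled MS2 coat protein” for “a labelled K4 kissing-loop RNA reporter”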
row,Sequence,apparent KD of MS2 coat protein [nM]
1,AUGUUUGUGUGAGAUACCAGUGAGGCCACAUGAGGAUCACCCAUGUCCCUCACUCCGGCCCACCCUUGGCAGCUCUUAUAGAAAA [Exclusion Theophylline B GF 26],8.81
2,AGAUGUAGCGGAAGGAGCGACAUGAGGAUCACCCAUGUCUCCCGUUAUGGGAGUUCCUUAGGUCAGGUAGGUCGCCGUUACGUCA [Omei Arg B SS B v1],105
3,UUCAGCUAGUCGGCCGCCACUGCUUGAGGAUCACCCAAGUAGGUCCACACUGCUUCGGCAGUGAGUAGGACCGGGACUAGCUGAG,10.9
4,AAUAGUCCUCGACAUGGGUAUCACCCAUGUCGAGGACCGGUACGGCCGCCACUCGACAUGAGGAUCACCCAUGUUGAGUGAUAAA [prototype 1.1],12.2
5,CAGGUGCAGUCAGAUACCAGAUCUGCACAUGAGGAUCACCCAUGUGUAAUGAGUUCAAAGAUCCCUUGGCAGCUGUGUGAUCCGA [Onbidibe],81.1
6,GAUAUAUAUCGAAGGAGCGGCCCUUGAUCCUCAUGAGACAUGAGGAUCACCCAUGUCUCGGGCCAGGUAGGUCGCGAUAUAUAUC [Astros-omei-mod2],26.3
7,ACACACAUGAGGAUCACCCAUGUCUAUAUACGAGGACCGGUACGGCCGCCACUCGUGAGAUCGCGAGAGACAGCUUUGGGCUAGU [theeternabot_sameState_MS2_Trp_A_37],17
8,ACGCACAUGAGGAUCACCCAUGUGAACCUACGAGGACCGGUACGGCCGCCACUCGCUGUUCCUACCGGCUUAAUUGUCACUGGGU [theeternabot_sameState_MS2_Trp_A_19],27.3
9,CAAGAACAGCCGAAUCUCGGCAGCUGAGAAGGAGCGCGAGAAGUCGCAGGUAGGUCGCUCAGGAAUACAUGAGGAUCACCCAUGU [Usaronen],32.4
10,UAAUAAAUAAAUCCAAGGUGAAGGUCAGAUACCAGCCAGAUAACUGGCCCUUGGCAGCUGAAUAAUCAUGAGGAUCACCCAUGAA [TheoAS 25 #OpenEnded #MS2Late #AlternativeMS2],17.2
11,CCUGGAUCAGAUCUUAAAGGCGGUUCUGAUACCAGUCUUUUCCGAGACCCUUGGCAGCAGAACACAUGAGGAUCACCCAUGUAAA [theeternabot_exclusion_MS2_Theo_A_11],29.1
12,UACCGAGAGGGAAGGAGCGCGAUAACAUAACAUGAGGAUCACCCAUGUAAGAAAUUAAUCAUGCAGGUAGGUCGCCCAAGCGGAU [Same State Arginine B GF 2],16.7
13,AGUAGUUGACAAAAGUCAGCUACAACUGAAGGAGCGGGUGGGUGCCCAGGUAGGUCGCGGAAACAUGAGGAUCACCCAUGUAUAA [ArgAS 1 #BothOrNeither #OpenEnded],37.3
14,UGUAUGUGAUUUGAUACCAGACCAGCUGGUGGUACCUGAGGAUCACCCAGGUAGGUUUGGGUCCCUUGGCAGCAAAUCGCAUACU [SS Theo B #24 Ms6],22
15,GGGACAUCGGGAAGGAGCGCAUCCAAACCACACAUGAGGAUCACCCAUGUAUAAAUAUGCAUGCAGGUAGGUCGCCCGGUGCCUC [Axeenza],44.2
16,UGACAUUGCUCAGAUACCAGACUUGAGGAUCACCCAAGUGCCAACAAGUAUAUAAUAAAAGUCCCUUGGCAGCUGAGCAAUGUCU [TheoBX 18#MS2Left #AlternativeMS2 #Theo2],42.7
17,GGAGGUGAGAGAAGGAGCGGAAGUUUCGUUACAACAUGAGGAUCACCCAUGUAACGUUUAGUCCAGGUAGGUCGCUCUCGGGCGG [jbbgmullin],19.2
18,AGAUUUAUUCUGACCGGGCUCAUUCCUGAAGGAGCGCAGAACAAUGCAGGUAGGUCGCAGGACAUGAGGAUCACCCAUGUCAGGC [Inmainzais],15.5
19,UAACAUGAGGAUCACCCAUGUUUAGAUGAACGAGGACCGGUACGGCCGCCACUCGAUAAGUGGAAGAAACGAGGGAUUGUAUGAU [Same State Trp A GF2],14.1
20,GCUACAUGAGGAUCACCCAUGUAUGCGAGCCGAGGACCGGUACGGCCGCCACUCGCUUAACAUGAGGAUCACCCAUGUUGCUCGG [SSTA DOUBLE!!! :-D #17],38.9
21,GGACUAACCAGAAGGAGCGGCACAGCAGAAACUGCAAAUCCUCCGCACGAGGAUCACCCGUGUCAGGUAGGUCGCUGGUUAGUCG [ArgBX 28],33.5
22,UUUUUCGCGGGUGAUACCAGCAAAGCUGUACUGGUCUGGUACAUGAGGAUCACCCAUGUUUGCCCUUGGCAGCGCUCGGGAGAAG [#21 Exclusion-TheophyllineB],27.7
23,GCUAGUGGCAGAAGGAGCGAGGCUACAUACGGGUACAUGAGGAUCACCCAUGUGGUGUGUACUCAGGUAGGUCGCUGCCACUAGC [SSAB NP+V+V2 #13 Same Structure],193
24,AAGGUGAUCCCAGAUACCAGCUUAACAUGAGGAUCACCCAUGUAACGGACGAAAGUCCGGAGCCCUUGGCAGCUGGGUUGCCAAG [SSTheo B #14],102
25,AUGUCGUUGAAUAUAGCGGCUUGGUGUGAUACCAGAAUGAUCAAAUUCCCUUGGCAGCAUUACAUGAGGAUCACCCAUGUUUAGG [SSTheo A #18],18.6
26,UCACAUGAGGAUCACCCAUGUGUCAGAGAAGGAGCGGCCGCAAGGCCAGGUAGGUCGCUCAGGUAGCGUGAGGAUCACCCGUGUG [#1 Exclusion - Arginine A Attempt #10 (Inspired by cyborg)],23.6
27,GGGUGCGGGUGAAGGAGCGUGAAGACAUGAGGAUCACCCAUGUAGAGGCCCGAACAGGGUUCGCAGGUAGGUCGCACCCGUGCCC [#1 Same State - Arginine B Attempt #3 (HarryS)],12
28,GGGAGGGAGGCGGCCGCCACUGAUUUUCAUAUAUAUAUAACAUGAGGAUCACCCAUGUGGAUAUGCAGGACCGGGCCUUUUUUUU [aaaJ],123
29,ACAUAGAGAUUAAUCGUGGGCAUACUCGAUACCAGUAUUUUAACCUACCCUUGGCAGCGACAUGAGGAUCACCCAUGUGAGAUGA [XTheo A #9],21.2
